The PETadex activity labels (doi:10.1038/s41586-022-04599-z)

B1: unnamed (protein)
chain: SNPYQRGPNPTRSALTADGPFSVATYTVSRLSVSGFGGGVIYYPTGTSLTFGGIAMSPGYTADASSLAWLGRRLASHGFVVLVINTNSRFDYPDSRASQLSAALNYLRTSSPSAVRARLDANRLAVAGHSMGGGGTLRIAEQNPSLKAAVPLTPWHTDKTFNTSVPVLIVGAEADTVAPVSQHAIPFYQNLPSTTPKVYVELDNASHFAPNSNNAAISVYTISWMKLWVDNDTRYRQFLCNVNDPALSDFRTNNRHCQLEHHHHHH
B2: unnamed (protein)
chain: QTNPYARGPNPTAASLEASAGPFTVRSFTVSRPSGYGAGTVYYPTNAGGTVGAIAIVPGYTARQSSIKWWGPRLASHGFVVITIDTNSTFDYPSSRSSQQMAALRQVASLNGDSSSPIYGKVDTARMGVMGHSMGGGASLRSAANNPSLKAAIPQAPWDSQTNFSSVTVPTLIFACENDSIAPVNSHALPIYDSMSRNAKQFLEINGGSHSCANSGNSNQALIGKKGVAWMKRFMDNDTRYSTFACENPNSTAVSDFRTANCSLEHHHHHH
B3: unnamed (protein)
chain: QTNPYARGPNPTAASLEASAGPFTVRSFTVSRPSGYGAGTVYYPTNAGGTVGAIAIVPGYTARQSSIKWWGPRLASHGFVVITIDTNSTLDQPESRSSQQMAALRQVASLNGTSSSPIYGKVDTARMGVMGWSMGGGGSLISAANNPSLKAAAPQAPWHSSTNFSSVTVPTLIFACENDSIAPVNSSALPIYDSMSRNAKQFLEINGGSHSCANSGNSNQALIGKKGVAWMKRFMDNDTRYSTFACENPNSTAVSDFRTANCSLEHHHHHH
B4: unnamed (protein)
chain: QTNPYARGPNPTAASLEASAGPFTVRSFTVSRPSGYGAGTVYYPTNAGGTVGAIAIVPGYTARQSSIKWWGPRLASHGFVVITIDTNSTLDQPSSRSSQQMAALRQVASLNGTSSSPIYGKVDTARMGVMGWSMGGGGSLISAANNPSLKAAAPQAPWDSSTNFSSVTVPTLIFACENDSIAPVNSSALPIYDSMSRNAKQFLEINGGSHSCANSGNSNQALIGKKGVAWMKRFMDNDTRYSTFACENPNSTRVSDFRTANCSLEHHHHHH
B5: unnamed (protein)
chain: QTNPYARGPNPTAASLEASAGPFTVRSFTVSRPSGYGAGTVYYPTNAGGTVGAIAIVPGYTARQSSIKWWGPRLASHGFVVITIDTNSTLDQPESRSSQQMAALRQVASLNGTSSSPIYGKVDTARMGVMGWSMGGGGSLISAANNPSLKAAAPQAPWHSSTNFSSVTVPTLIFACENDSIAPVNSSALPIYDSMSQNAKQFLEIKGGSHSCANSGNSNQALIGKKGVAWMKRFMDNDTRYSTFACENPNSTAVSDFRTANCSLEHHHHHH
B6: unnamed (protein)
chain: MSNPYQRGPNPTRSALTADGPFSVATYTVSRLSVSGFGGGVIYYPTGTSLTFGGIAMSPGYTADASSLAWLGRRLASHGFVVLVINTNSRFDYPDSRASQLSAALNYLRTSSPSAVRARLDANRLAVAGHSMGGGGTLRIAEQNPSLKAAVPLTPWHTDKTFNTSVPVLIVGAEADTVAPVSQHAIPFYQNLPSTTPKVYVELCNASHIAPMSNNAAISVYTISWMKLWVDNDTRYRQFLCNVNDPALCDFRTNNRHCQLEHHHHHH

These proteins were tested on PET (assay: Proxy for plastic degradation [Released monomer concentration (HPLC/LC-MS) (MHET+TPA)]). Conditions: pH 6.5; 30 °C.
With B1 the “Proxy for plastic degradation” value was 0.17 mM. In the case of B6, the “Proxy for plastic degradation” value is reported as 0.18 mM.

Same assay, conditions: pH 6.5; 40 °C
B1 was tested, and the “Proxy for plastic degradation” value was 0.2 mM. For B6, the “Proxy for plastic degradation” value was 0.8 mM.

Same assay, conditions: pH 7; 30 °C
For B1, the “Proxy for plastic degradation” value was 0.2 mM. For B6, the “Proxy for plastic degradation” value was 0.23 mM.

Same assay, conditions: pH 7; 40 °C
For B1, the “Proxy for plastic degradation” value was 0.4 mM. In the case of B6, the “Proxy for plastic degradation” value is reported as 2 mM.

Same assay, conditions: pH 7.5; 30 °C
In the case of B1, the “Proxy for plastic degradation” value is reported as 0.22 mM. With B6 the “Proxy for plastic degradation” value was 0.23 mM.

Same assay, conditions: pH 7.5; 40 °C
With B1 the “Proxy for plastic degradation” value was 1.9 mM. With B6 the “Proxy for plastic degradation” value was 3 mM.

Same assay, conditions: pH 8; 30 °C
For B1, the “Proxy for plastic degradation” value was 0.25 mM. For B6, the “Proxy for plastic degradation” value was 0.37 mM.

Same assay, conditions: pH 8; 40 °C
For B1, the “Proxy for plastic degradation” value was 2.3 mM. B6 was tested, and the “Proxy for plastic degradation” value was 4 mM.

Same assay, conditions: pH 6.5; 30 °C; part of the chain shown
In the case of B2, the “Proxy for plastic degradation” value is reported as 0.15 mM. B3 was tested, and the “Proxy for plastic degradation” value was 0.6 mM. For B4, the “Proxy for plastic degradation” value was 0.1 mM. For B5, the “Proxy for plastic degradation” value was 0.7 mM.

Same assay, conditions: pH 6.5; 40 °C; part of the chain shown
With B2 the “Proxy for plastic degradation” value was 0 mM. With B3 the “Proxy for plastic degradation” value was 0.5 mM. For B4, the “Proxy for plastic degradation” value was 0 mM. B5 was tested, and the “Proxy for plastic degradation” value was 1 mM.

Same assay, conditions: pH 7; 30 °C; part of the chain shown
B2 was tested, and the “Proxy for plastic degradation” value was 0.15 mM. With B3 the “Proxy for plastic degradation” value was 1.2 mM. With B4 the “Proxy for plastic degradation” value was 0.15 mM. In the case of B5, the “Proxy for plastic degradation” value is reported as 1.5 mM.

Same assay, conditions: pH 7; 40 °C; part of the chain shown
For B2, the “Proxy for plastic degradation” value was 0.3 mM. For B3, the “Proxy for plastic degradation” value was 9 mM. For B4, the “Proxy for plastic degradation” value was 0 mM. B5 was tested, and the “Proxy for plastic degradation” value was 12 mM.

Same assay, conditions: pH 7.5; 30 °C; part of the chain shown
For B2, the “Proxy for plastic degradation” value was 0.2 mM. B3 was tested, and the “Proxy for plastic degradation” value was 2.3 mM. B4 was tested, and the “Proxy for plastic degradation” value was 0.25 mM. In the case of B5, the “Proxy for plastic degradation” value is reported as 2.9 mM.

Same assay, conditions: pH 7.5; 40 °C; part of the chain shown
For B2, the “Proxy for plastic degradation” value was 1 mM. For B3, the “Proxy for plastic degradation” value was 12 mM. For B4, the “Proxy for plastic degradation” value was 0 mM. In the case of B5, the “Proxy for plastic degradation” value is reported as 19 mM.

Same assay, conditions: pH 8; 30 °C; part of the chain shown
For B2, the “Proxy for plastic degradation” value was 0.15 mM. With B3 the “Proxy for plastic degradation” value was 2.9 mM. With B4 the “Proxy for plastic degradation” value was 0.6 mM. With B5 the “Proxy for plastic degradation” value was 3.6 mM.

Same assay, conditions: pH 8; 40 °C; part of the chain shown
In the case of B2, the “Proxy for plastic degradation” value is reported as 2 mM. With B3 the “Proxy for plastic degradation” value was 13 mM. B4 was tested, and the “Proxy for plastic degradation” value was 0.2 mM. With B5 the “Proxy for plastic degradation” value was 32 mM.

Same assay, conditions: pH 8; 1 h; part of the chain shown
B5 was tested, and the “Proxy for plastic degradation” value was 13.4 mM.

Same assay, conditions: pH 8; 2 h; part of the chain shown
With B5 the “Proxy for plastic degradation” value was 31.1 mM.

Same assay, conditions: pH 8; 3 h; part of the chain shown
With B5 the “Proxy for plastic degradation” value was 48.7 mM.

Same assay, conditions: pH 8; 4 h; part of the chain shown
In the case of B5, the “Proxy for plastic degradation” value is reported as 66.7 mM.

Same assay, conditions: pH 8; 5 h; part of the chain shown
In the case of B5, the “Proxy for plastic degradation” value is reported as 88 mM.

Same assay, conditions: pH 8; 6 h; part of the chain shown
B5 was tested, and the “Proxy for plastic degradation” value was 109 mM.

Same assay, conditions: pH 8; 7 h; part of the chain shown
With B5 the “Proxy for plastic degradation” value was 131 mM.

Same assay, conditions: pH 8; 8 h; part of the chain shown
With B5 the “Proxy for plastic degradation” value was 148 mM.

Same assay, conditions: pH 8; 9 h; part of the chain shown
For B5, the “Proxy for plastic degradation” value was 163 mM.

Same assay, conditions: pH 8; 10 h; part of the chain shown
In the case of B5, the “Proxy for plastic degradation” value is reported as 175 mM.

Same assay, conditions: pH 8; 11 h; part of the chain shown
B5 was tested, and the “Proxy for plastic degradation” value was 185 mM.

Same assay, conditions: pH 8; 12 h; part of the chain shown
With B5 the “Proxy for plastic degradation” value was 195 mM.

Same assay, conditions: pH 8; 13 h; part of the chain shown
For B5, the “Proxy for plastic degradation” value was 204 mM.

Same assay, conditions: pH 8; 13.5 h; part of the chain shown
In the case of B5, the “Proxy for plastic degradation” value is reported as 208 mM.
